{"source": "paper PMC2697320", "about": "“Identification of the high affinity binding site in the Streptococcus intermedius toxin intermedilysin for its membrane receptor, the human complement regulator CD59” (Molecular Immunology, 2009)", "molecular_target": "Human CD59 on human erythrocytes (human (endogenous in human erythrocytes)) (UniProt P13987)", "sequence (P13987 26-102)": "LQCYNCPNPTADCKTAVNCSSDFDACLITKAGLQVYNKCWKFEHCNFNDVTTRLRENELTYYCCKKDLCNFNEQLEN"}
{"substance": "ILY LI > TV mutant (natural protein)", "values": [{"measurement": "fold increase of the dose required for 50% hemolysis of human erythrocytes against native ILY", "value": 2.5, "unit": "fold"}]}
